From publication PMC12931233

What was measured:
[1] = immunoblot of endogenous CD47, MHCC97-H and HCCLM3; conditions: control: matched control (untreated/DMSO, scramble, vector)
[2] = cell-surface CD47 by flow cytometry and immunofluorescence; conditions: glycan changed form; control: scramble / vector
[3] = CHX chase, rescued MHCC97-H; half-life; conditions: glycan changed form; control: scramble / vector, WT CD47 rescued cells
[4] = IP and ubiquitin immunoblot
[5] = CHX chase immunoblot, 293T; half-life; conditions: glycan lost
[6] = immunoblot, reconstituted MHCC97-H; conditions: glycan lost; control: WT CD47 reconstituted cells
[7] = CHX chase immunoblot, reconstituted MHCC97-H; half-life; conditions: glycan lost; control: WT CD47 reconstituted cells
[8] = Transwell chemotaxis; CCR7 on DCs; conditions: glycan lost; control: CD47 WT reconstituted Hepa1-6
[9] = ubiquitin immunoblot, reconstituted Hepa1-6; conditions: glycan lost; control: WT CD47 reconstituted Hepa1-6
[10] = Transwell co-culture with BMDCs, flow cytometry; conditions: glycan lost; control: CD47 WT reconstituted Hepa1-6

For CD47: 2F-Fuc, the expression_or_secretion ([1]; glycan changed form) was “decreases”.

For CD47: FUT8 ablation, the expression_or_secretion [2] was “decreases”.

In the case of CD47: FUT8 depletion, the degradation_or_half_life [3] is reported as “decreases”.

With CD47: FUT8 overexpression the degradation_or_half_life [3] was “increases” and the expression_or_secretion [2] was “increases”.

With CD47: HA-FUT8 WT overexpression the “other: ubiquitination level” value ([4]; glycan changed form, control: untreated / vector) was “decreases”.

For CD47: HA-FUT8 overexpression, the expression_or_secretion ([1]; glycan changed form) was “increases”.

For CD47: N23Q, the “other: ubiquitination level” value ([4]; glycan lost, control: WT CD47) was “no change” and the degradation_or_half_life ([5]; control: Flag-CD47 WT) was “no change”.

In the case of CD47: N34Q, the “other: ubiquitination level” value ([4]; glycan lost, control: WT CD47) is reported as “no change” and the degradation_or_half_life ([5]; control: Flag-CD47 WT) is reported as “no change”.

In the case of CD47: N50Q, the “other: ubiquitination level” value ([4]; glycan lost, control: WT CD47) is reported as “no change” and the degradation_or_half_life ([5]; control: Flag-CD47 WT) is reported as “no change”.

For CD47: N73Q, the “other: ubiquitination level” value ([4]; glycan lost, control: WT CD47) was “no change” and the degradation_or_half_life ([5]; control: Flag-CD47 WT) was “no change”.

For CD47: N111A, the expression_or_secretion [6] was “decreases” and the degradation_or_half_life [7] was “decreases”.

With CD47: N111Q the “other: ubiquitination level” value ([4]; glycan lost, control: WT CD47) was “increases”, the expression_or_secretion [6] was “decreases” and the degradation_or_half_life ([5]; control: Flag-CD47 WT) was “decreases”. The degradation_or_half_life [7] was “decreases”.

With CD47: N111T the expression_or_secretion [6] was “decreases” and the degradation_or_half_life [7] was “decreases”.

With CD47: shFUT8 the expression_or_secretion ([1]; glycan changed form) was “decreases”.

For CD47: tunicamycin (TM), the “other: ubiquitination level” value ([4]; glycan lost, control: untreated / vector) was “increases”, the degradation_or_half_life ([5]; control: DMSO) was “decreases” and the expression_or_secretion ([1]; glycan lost) was “decreases”.

B1: CD47 (murine): N109Q (protein)
parent chain: MWPLAAALLLGSCCCGSAQLLFSNVNSIEFTSCNETVVIPCIVRNVEAQSTEEMFVKWKLNKSYIFIYDGNKNSTTTDQNFTSAKISVSDLINGIASLKMDKRDAMVGNYTCEVTELSREGKTVIELKNRTVSWFSPNEKILIVIFPILAILLFWGKFGILTLKYKSSHTNKRIILLLVAGLVLTVIVVVGAILLIPGEKPVKNASGLGLIVISTGILILLQYNVFMTAFGMTSFTIAILITQVLGYVLALVGLCLCIMACEPVHGPLLISGLGIIALAELLGLVYMKFVASNQRTIQPPRNR
With B1 the “other: CD103+ DC migration and CCR7 expression” value [8] was “increases”, the “other: ubiquitination level” value [9] was “increases” and the “other: NK cell TNF-α and GZMB expression” value [10] was “increases”.

B2: CD47 (murine): N109A (protein)
parent chain: B1 parent chain
With B2 the “other: NK cell TNF-α and GZMB expression” value [10] was “increases”.

B3: CD47 (murine): N109T (protein)
parent chain: B1 parent chain
For B3, the “other: NK cell TNF-α and GZMB expression” value [10] was “increases”.
